Experimental data: US20250215089A1 (HARBOUR BIOMED SHANGHAI, published 2025)
Changes are numbered by the printed parent chain. Names and notes keep the numbering of the source. Values joined by “and” are separate entries in the source; they are usually repeats but may differ in a detail not shown here. Equal entries are not always repeated.

B1: PR006919 (bispecific antibody, human IgG1, kappa)
heavy: QVQLVESGGGVVQPGMSLRLSCAASGFDFSSYGMYWVRQAPGKGQEWVASIRYTGTEKHYADSVKGRFTISRDNSKNTLYLEMNSLRVEDTAVYYCAKNRAIFGVIPDDSDIRGQGTMVTVSSGGGGSQVQLVQSGAEVKKPGASVKVSCKASGYTFAGYYMYWVRQAPGQGLEWMGWINPDSGAPTYAQKFQGRVTMTRDTSISTAYMELSRLRSDDTAVYYCAREKIYYGSGNYYPSFDYWGQGTLVTVSSASTKGPSVFPLAPSSKSTSGGTAALGCLVKDYFPEPVTVSWNSGALTSGVHTFPAVLQSSGLYSLSSVVTVPSSSLGTQTYICNVNHKPSNTKVDKKVEPKSCDKTHTCPPCPAPEAAGAPSVFLFPPKPKDTLMISRTPEVTCVVVDVSHEDPEVKFNWYVDGVEVHNAKTKPREEQYNSTYRVVSVLTVLHQDWLNGKEYKCKVSNKALPAPIEKTISKAKGQPREPQVYTLPPSREEMTKNQVSLTCLVKGFYPSDIAVEWESNGQPENNYKTTPPVLDSDGSFFLYSKLTVDKSRWQQGNVFSCSVMHEALHNHYTQKSLSLSPGK
light: DIQLTQSPSFLSASVGDRVTITCRASQGISSYLAWYQQKPGKAPKLLIYAASTLQSGVPSRFSGSGSGTEFTLTISSLQPEDFATYYCQQLFSYPWTFGQGTKVEIKRTVAAPSVFIFPPSDEQLKSGTASVVCLLNNFYPREAKVQWKVDNALQSGNSQESVTEQDSKDSTYSLSSTLTLSKADYEKHKVYACEVTHQGLSSPVTKSFNRGEC
notes: VH of PR006246 (PD-L1) - GS_5 - heavy chain of CD40 IgG PR006496; human IgG1 L234A/L235A/G237A; also called PD-L1×CD40
B2: PR007268 (bispecific antibody, human IgG1, kappa)
heavy: B1 heavy
light: B1 light with F92Y
notes: VH of PR006246 (PD-L1) - GS_5 - heavy chain of CD40 IgG PR006497; human IgG1 L234A/L235A/G237A; also called PD-L1×CD40
B3: PR007070 (bispecific antibody, human IgG1, kappa)
heavy: B1 heavy with D28T, I102L
light: B1 light with F92A
notes: VH of PR005878 (PD-L1) - GS_5 - heavy chain of CD40 IgG PR006495; human IgG1 L234A/L235A/G237A; also called PD-L1×CD40
B4: PR007273 (bispecific antibody, human IgG1, kappa)
heavy: B1 heavy with I106V, D109A
light: B1 light with F92A
notes: VH of PR006245 (PD-L1) - GS_5 - heavy chain of CD40 IgG PR006495; human IgG1 L234A/L235A/G237A; also called PD-L1×CD40
B5: PR007269 (bispecific antibody, human IgG1, kappa)
heavy: B1 heavy
light: B1 light with F92N, S93N
notes: VH of PR006246 (PD-L1) - GS_5 - heavy chain of CD40 IgG PR006511; human IgG1 L234A/L235A/G237A; also called PD-L1×CD40
B6: PR007619 (bispecific antibody, human IgG1, kappa)
heavy: QVQLVESGGGVVQPGMSLRLSCAASGFDFSSYGMYWVRQAPGKGQEWVASIRYTGTEKHYADSVKGRFTISRDNSKNTLYLEMNSLRVEDTAVYYCAKNRAIFGVIPDDSDIRGQGTMVTVSSGGSQVQLVQSGAEVKKPGASVKVSCKASGYTFAGYYMYWVRQAPGQGLEWMGWINPDSGAPTYAQKFQGRVTMTRDTSISTAYMELSRLRSDDTAVYYCAREKIYYGSGNYYPSFDYWGQGTLVTVSSASTKGPSVFPLAPSSKSTSGGTAALGCLVKDYFPEPVTVSWNSGALTSGVHTFPAVLQSSGLYSLSSVVTVPSSSLGTQTYICNVNHKPSNTKVDKKVEPKSCDKTHTCPPCPAPEAAGAPSVFLFPPKPKDTLMISRTPEVTCVVVDVSHEDPEVKFNWYVDGVEVHNAKTKPREEQYNSTYRVVSVLTVLHQDWLNGKEYKCKVSNKALPAPIEKTISKAKGQPREPQVYTLPPSREEMTKNQVSLTCLVKGFYPSDIAVEWESNGQPENNYKTTPPVLDSDGSFFLYSKLTVDKSRWQQGNVFSCSVMHEALHNHYTQKSLSLSPGK
light: B1 light with F92V
notes: VH of PR006246 (PD-L1) - GS_3 - heavy chain of CD40 IgG PR006504; human IgG1 L234A/L235A/G237A; also called PD-L1×CD40
B7: PR007151 (bispecific antibody, human IgG1, kappa)
heavy: B1 heavy with D28T, I102L
light: B1 light with F92V
notes: VH of PR005878 (PD-L1) - GS_5 - heavy chain of CD40 IgG PR006504; human IgG1 L234A/L235A/G237A; also called PD-L1×CD40
B8: PR007275 (bispecific antibody, human IgG1, kappa)
heavy: B1 heavy with I102L, D109A
light: B1 light with F92A
notes: VH of PR006247 (PD-L1) - GS_5 - heavy chain of CD40 IgG PR006495; human IgG1 L234A/L235A/G237A; also called PD-L1×CD40

Columns and labels:
human CD40 [1] = molecular target: T1, human CD40 (human, UniProt P25942 21-277); experiment: FACS, Raji cells
T1 construct: whole, on cells; also called hCD40; TNFRSF5
T1 sequence (P25942 21-277): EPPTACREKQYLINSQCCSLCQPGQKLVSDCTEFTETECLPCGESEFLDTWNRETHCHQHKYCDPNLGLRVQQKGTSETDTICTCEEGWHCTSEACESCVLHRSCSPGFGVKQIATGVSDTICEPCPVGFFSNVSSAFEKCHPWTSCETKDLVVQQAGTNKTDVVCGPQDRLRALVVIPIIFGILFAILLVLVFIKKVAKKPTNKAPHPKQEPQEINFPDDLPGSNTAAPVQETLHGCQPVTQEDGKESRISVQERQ
Protocol: (§1) The cells were incubated at 4° C. for 1 hours in the dark. After the incubation, the cells were rinsed twice by adding pre-chilled PBS at 100 μL/well, and centrifuged at 500 g at 4° C. for 5 minutes, and the supernatant was discarded. Then, a fluorescent secondary antibody (goat anti-human IgG (H+L) secondary antibody, Alexa Fluor® 488 conjugate, Invitrogen, #A11013, 1:1000 dilution) was added at 100 μL/well, and the cells were incubated at 4° C. for 30 minutes in the dark. The cells were washed twice with pre-chilled PBS at 200 μL/well, and centrifuged at 500 g at 4° C. for 5 minutes, and the supernatant was discarded. Finally, the cells were resuspended in pre-chilled PBS at 200 μL/well. The fluorescence signal values were read using a BD FACS CANTOII flow cytometer or ACEA NovoCyte flow cytometer, and the data were processed and analyzed using FlowJo v10 software (FlowJo, LLC).

human PD-L1 [2] = molecular target: T2, human PD-L1 (human, UniProt Q9NZQ7 19-290); experiment: FACS, NCI-H226 cells
T2 construct: whole, on cells; also called hPD-L1; CD274
T2 sequence (Q9NZQ7 19-290): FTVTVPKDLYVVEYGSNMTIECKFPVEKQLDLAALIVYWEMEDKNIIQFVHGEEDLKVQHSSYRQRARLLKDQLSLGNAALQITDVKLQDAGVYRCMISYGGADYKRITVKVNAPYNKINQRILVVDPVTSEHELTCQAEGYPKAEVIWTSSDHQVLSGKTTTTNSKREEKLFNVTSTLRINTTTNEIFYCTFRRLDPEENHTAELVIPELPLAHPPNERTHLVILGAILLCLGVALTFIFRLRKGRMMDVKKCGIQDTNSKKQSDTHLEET
Protocol: (§2) Specifically, the cells expressing PD-L1 were digested and resuspended in PBS buffer containing 2% BSA. The cells were adjusted to a cell density of 1×10⁶ cells/mL, respectively. The cells were seeded in a 96-well V-bottom plate (Corning, #3894) at 100 μL/well, and the antibody to be tested at 2×final concentration with 4-fold concentration gradient dilution was then added at 100 μL/well. The cells were incubated at 4° C. for 2 hours in the dark. After the incubation, the cells were rinsed twice by adding pre-chilled PBS containing 2% BSA at 100 μL/well, and centrifuged at 500 g at 4° C. for 5 minutes, and the supernatant was discarded. […] The cells were washed twice by adding pre-chilled PBS containing 2% BSA at 100 µL/well, and centrifuged at 500 g at 4° C. for 5 minutes, and the supernatant was discarded. Finally, the cells were resuspended in pre-chilled PBS buffer containing 2% BSA at 200 μL/well. The fluorescence signal values were read using a BD FACS CANTOII flow cytometer or ACEA NovoCyte flow cytometer, and the data were processed and analyzed using FlowJo v10 software (FlowJo, LLC).

human PD-L1 [3] = molecular target: T2, human PD-L1; experiment: cell-based or functional assay
human CD40 [4] = molecular target: T1, human CD40; experiment: cell-based or functional assay
human CD40 [5] = molecular target: T1, human CD40; experiment: FACS, CHO-K1/hCD40 cells
Protocol: as §1

human PD-L1 [6] = molecular target: T2, human PD-L1; experiment: FACS, CHO-K1/hPD-L1 cells
Protocol: as §2

cynomolgus monkey CD40 = molecular target: T3, cynomolgus monkey CD40 (cynomolgus monkey); experiment: FACS, CHO-K1/cyCD40 cells
T3 construct: whole, on cells; also called cyCD40
Protocol: as §1

cynomolgus monkey PD-L1 = molecular target: T4, cynomolgus monkey PD-L1 (cynomolgus monkey); experiment: FACS, CHO-K1/cyPD-L1 cells
T4 construct: whole, on cells; also called cyPD-L1
Protocol: as §2

Row | Binder | EC50 (human CD40 [1]) [nM] | Maximum MFI (human CD40 [1]) [MFI] | EC50 (human PD-L1 [2]) [nM] | Maximum MFI (human PD-L1 [2]) [MFI] | EC50, Jurkat-NFAT-hPD1 reporter (human PD-L1 [3]) | Maximum (RLU), Jurkat-NFAT-hPD1 reporter (human PD-L1 [3]) [RLU] | EC50, HEK293-hCD40-NFκB reporter, + CHO-K1 (human CD40 [4]) [nM] | EC50, HEK293-hCD40-NFκB reporter, + CHO-K1/hPD-L1 (human CD40 [4]) [nM] | Maximum (RLU), HEK293-hCD40-NFκB reporter, + CHO-K1 (human CD40 [4]) [RLU] | Maximum (RLU), HEK293-hCD40-NFκB reporter, + CHO-K1/hPD-L1 (human CD40 [4]) [RLU] | EC50 (human CD40 [5]) [nM] | Maximum MFI (human CD40 [5]) [MFI] | EC50 (human PD-L1 [6]) [nM] | Maximum MFI (human PD-L1 [6]) [MFI] | EC50 (cynomolgus monkey CD40) [nM] | Maximum MFI (cynomolgus monkey CD40) [MFI] | EC50 (cynomolgus monkey PD-L1) [nM] | Maximum MFI (cynomolgus monkey PD-L1) [MFI]
1 | B1 | 1.24 | 7360 | 0.389 | 870 | 0.359 nM | 4920 | 0.144 | 0.0106 | 24500 | 31400 | 2.53 | 18900 | 0.96 | 19600 | 3.37 | 76200 | 0.622 | 4540
2 | B2 | 1.38 | 7430 | 0.42 | 869 | 0.181 nM | 2810 | 0.266 | 0.0571 | 156000 | 286000 | 1.65 | 16300 | 1.08 | 19600 | 2.8 | 65700 | 0.68 | 4550
3 | B3 | 1.36 | 6670 | 0.313 | 862 | 0.175 nM | 2830 | 0.136 | 0.0138 | 26900 | 31700 | 2.67 | 15400 | 1.15 | 20500 | 15.6 | 93200 | 0.779 | 4870
4 | B4 | 1.43 | 7580 | 0.773 | 914 | 0.109 nM | 2520 | 0.238 | 0.0598 | 199000 | 333000 | 2.05 | 14300 | 1.39 | 19800 | 4.2 | 71300 | 0.89 | 4620
5 | B5 | 1.46 | 7570 | 0.521 | 869 | 0.162 nM | 2910 | 0.234 | 0.0692 | 189000 | 271000 | 2.4 | 16400 | 1.12 | 19700 | 2.57 | 53000 | 0.714 | 4670
6 | B6 | 1.26 | 6790 | 0.366 | 914 | 0.122 nM and 0.309 nM |  | 0.334 | 0.0312 | 3880 | 4780 | 2.5 | 17700 | 1.02 | 20100 | 1.77 | 51300 | 0.629 | 4820
7 | B7 | 1.3 | 6610 | 0.215 | 928 | 0.35 nM | 4640 | 0.425 | 0.0362 | 4000 | 4900 | 2.36 | 16000 | 1.14 | 20700 | 3.76 | 75400 | 0.754 | 4930
8 | B8 | 1.58 | 7650 | 0.764 | 959 | 0.234 nM | 2840 | 0.213 | 0.0558 | 231000 | 371000 | 2.57 | 14200 | 1.29 | 20000 | 4.12 | 66000 | 0.807 | 4620
